Reference: paper PMC6326841

Legend:
[1] = target: pyrene-labeled rabbit skeletal muscle F-actin (rabbit) (UniProt P68135); experiment: stopped-flow fluorescence
[2] = target: pyrene-labeled rabbit skeletal muscle F-actin (rabbit) (UniProt P68135); experiment: other fluorescence titration
[3] = target: RLC-depleted porcine cardiac myosin (pig (endogenous in porcine ventricular muscle)) (UniProt P79293); experiment: reconstitution of RLC-depleted myosin, SDS-PAGE densitometry
[4] = target: RLC-depleted porcine cardiac myosin (pig (endogenous in porcine ventricular muscle)) (UniProt P79293); experiment: reconstitution of RLC-depleted skinned muscle strips, SDS-PAGE densitometry

Molecule	kobs of actin-myosin dissociation at 10 μM MgATP [1]	kobs of actin-myosin dissociation at 25 μM MgATP [1]	kobs of actin-myosin dissociation at 40 μM MgATP [1]	kobs of actin-myosin dissociation at 80 μM MgATP [1]	kobs of actin-myosin dissociation at 150 μM MgATP [1]	kobs of actin-myosin dissociation at 250 μM MgATP [1]	Kd [2]	% RLC Present [3]	% RLC Present [4]
porcine cardiac myosin reconstituted with human cardiac R58Q RLC (from UniProt P79293 1-1935; P10916 1-166) (complex)	7.26 s⁻¹	15.1 s⁻¹	23.6 s⁻¹	45.6 s⁻¹	69.2 s⁻¹	107 s⁻¹	13.3 nM	–	–
porcine cardiac myosin reconstituted with human cardiac S15D-R58Q RLC (from UniProt P79293 1-1935; P10916 1-166) (complex)	7.29 s⁻¹	14.7 s⁻¹	25.3 s⁻¹	41.5 s⁻¹	74 s⁻¹	111 s⁻¹	3.53 nM	–	–
porcine cardiac myosin reconstituted with human cardiac WT RLC (from UniProt P79293 1-1935; P10916 1-166) (complex)	8.25 s⁻¹	15.7 s⁻¹	27.3 s⁻¹	48.9 s⁻¹	82.2 s⁻¹	107 s⁻¹	2.13 nM	–	–
human ventricular (cardiac) myosin regulatory light chain, wild type (natural protein) MAPKKAKKRAGGANSNVFSMFEQTQIQEFKEAFTIMDQNRDGFIDKNDLRDTFAALGRVNVKNEEIDEMIKEAPGPINFTVFLTMFGEKLKGADPEETILNAFKVFDPEGKGVLKADYVREMLTTQAERFSKEEVDQMFAAFPPDVTGNLDYKNLVHIITHGEEKD	–	–	–	–	–	–	–	87.2%	61.3%
human ventricular myosin regulatory light chain S15D-R58Q phosphomimic double mutant (natural protein) MAPKKAKKRAGGANDNVFSMFEQTQIQEFKEAFTIMDQNRDGFIDKNDLRDTFAALGQVNVKNEEIDEMIKEAPGPINFTVFLTMFGEKLKGADPEETILNAFKVFDPEGKGVLKADYVREMLTTQAERFSKEEVDQMFAAFPPDVTGNLDYKNLVHIITHGEEKD	–	–	–	–	–	–	–	86.9%	64.5%
human ventricular myosin regulatory light chain R58Q mutant (natural protein) MAPKKAKKRAGGANSNVFSMFEQTQIQEFKEAFTIMDQNRDGFIDKNDLRDTFAALGQVNVKNEEIDEMIKEAPGPINFTVFLTMFGEKLKGADPEETILNAFKVFDPEGKGVLKADYVREMLTTQAERFSKEEVDQMFAAFPPDVTGNLDYKNLVHIITHGEEKD	–	–	–	–	–	–	–	75.7%	54%
